Assay results from patent publication US20210338838A1.

Tests used:
[1] = target: C3b (complement component 3b) (UniProt P01024); test: relative C3b-binding assay, percent of CFH-Risk, detection antibody AbCam OX-24 (#Ab112197)
[2] = target: C3b (complement component 3b) (UniProt P01024); test: rank of binding affinity among six proteins, plate-based binding assays
[3] = target: C3b (complement component 3b) (UniProt P01024); test: cell-based or functional assay
[4] = target: C3b (complement component 3b) (UniProt P01024); test: relative C3b-binding assay, detection antibody AbCam OX-24 (#Ab112197)
[5] = target: C3b (complement component 3b) (UniProt P01024); test: plate-based binding assay, His-tagged recombinant protein from HEK293 cells

Chain of protective CFH-I62-Y402-E936 (full-length complement factor H) (P08603 19-1231 V62I): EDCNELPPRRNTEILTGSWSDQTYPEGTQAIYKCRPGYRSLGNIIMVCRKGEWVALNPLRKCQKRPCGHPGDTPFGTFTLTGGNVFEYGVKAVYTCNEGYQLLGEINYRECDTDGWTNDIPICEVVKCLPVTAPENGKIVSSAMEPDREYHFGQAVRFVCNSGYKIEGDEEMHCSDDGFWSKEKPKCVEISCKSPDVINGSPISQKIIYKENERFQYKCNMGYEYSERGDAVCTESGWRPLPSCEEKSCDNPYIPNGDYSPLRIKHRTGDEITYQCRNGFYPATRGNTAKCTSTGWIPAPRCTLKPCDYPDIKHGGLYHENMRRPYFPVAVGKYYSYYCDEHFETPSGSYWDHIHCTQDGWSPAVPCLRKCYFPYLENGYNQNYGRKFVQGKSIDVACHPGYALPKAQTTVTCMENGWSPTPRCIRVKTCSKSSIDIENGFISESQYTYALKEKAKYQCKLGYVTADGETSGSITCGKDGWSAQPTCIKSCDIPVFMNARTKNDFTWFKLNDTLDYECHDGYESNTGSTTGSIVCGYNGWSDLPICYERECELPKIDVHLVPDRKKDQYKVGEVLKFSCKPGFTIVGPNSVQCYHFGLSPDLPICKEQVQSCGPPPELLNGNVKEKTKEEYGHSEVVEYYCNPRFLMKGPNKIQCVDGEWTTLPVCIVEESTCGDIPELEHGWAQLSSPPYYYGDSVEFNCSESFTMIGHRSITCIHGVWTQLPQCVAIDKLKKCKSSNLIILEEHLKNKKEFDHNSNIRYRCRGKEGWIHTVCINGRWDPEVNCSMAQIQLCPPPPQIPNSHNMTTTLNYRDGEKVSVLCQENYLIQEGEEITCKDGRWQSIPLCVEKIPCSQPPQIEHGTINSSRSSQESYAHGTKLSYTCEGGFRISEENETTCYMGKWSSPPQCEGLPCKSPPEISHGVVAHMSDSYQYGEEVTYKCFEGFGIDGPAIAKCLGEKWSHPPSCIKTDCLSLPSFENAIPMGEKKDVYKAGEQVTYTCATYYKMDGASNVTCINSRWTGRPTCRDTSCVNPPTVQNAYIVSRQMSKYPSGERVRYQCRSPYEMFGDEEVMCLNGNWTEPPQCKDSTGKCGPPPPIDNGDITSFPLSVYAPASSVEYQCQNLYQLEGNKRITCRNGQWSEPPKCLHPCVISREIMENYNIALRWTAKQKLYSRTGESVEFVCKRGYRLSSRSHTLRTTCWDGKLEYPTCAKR
Chain of protective CFHT-I62-Y402 (truncated complement factor H ending in SFTL) (P08603 other isoform, or with tags, fused parts or gaps): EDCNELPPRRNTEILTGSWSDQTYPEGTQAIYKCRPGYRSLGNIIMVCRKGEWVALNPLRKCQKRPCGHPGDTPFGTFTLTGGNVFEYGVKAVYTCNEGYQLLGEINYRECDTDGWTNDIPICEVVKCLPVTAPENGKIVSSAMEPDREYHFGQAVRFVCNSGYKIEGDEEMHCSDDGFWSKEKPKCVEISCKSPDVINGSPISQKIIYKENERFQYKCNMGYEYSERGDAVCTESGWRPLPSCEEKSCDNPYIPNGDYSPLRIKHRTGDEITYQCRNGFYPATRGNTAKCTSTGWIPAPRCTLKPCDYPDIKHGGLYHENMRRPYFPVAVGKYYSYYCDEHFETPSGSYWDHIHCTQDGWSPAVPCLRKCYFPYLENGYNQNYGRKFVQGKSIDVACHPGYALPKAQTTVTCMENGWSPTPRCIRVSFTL
Chain of CFH-Del (CFH of the CFHR3/1 deletion haplotype, V62-Y402-E936) (P08603 19-1231, stated change not applied): as the sequence (P08603 19-1231 V62I) above, with I44V counted along it
Chain of CFHT-Neu/Del (truncated CFH of the neutral and deletion haplotypes, V62-Y402) (P08603 other isoform, or with tags, fused parts or gaps): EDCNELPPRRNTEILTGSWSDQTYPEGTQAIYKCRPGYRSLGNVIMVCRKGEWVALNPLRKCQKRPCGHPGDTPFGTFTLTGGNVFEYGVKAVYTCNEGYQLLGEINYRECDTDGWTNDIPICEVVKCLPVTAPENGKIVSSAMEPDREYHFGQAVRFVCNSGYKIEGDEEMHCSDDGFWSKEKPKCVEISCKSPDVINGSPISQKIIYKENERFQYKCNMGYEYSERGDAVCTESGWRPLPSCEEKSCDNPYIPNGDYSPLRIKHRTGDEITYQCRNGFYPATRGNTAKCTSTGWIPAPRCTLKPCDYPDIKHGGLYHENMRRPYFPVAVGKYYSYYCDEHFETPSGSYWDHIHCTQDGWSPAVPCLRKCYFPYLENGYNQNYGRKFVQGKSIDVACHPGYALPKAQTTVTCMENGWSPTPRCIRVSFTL

Row | % FH-Risk [1] [%] | Binding Affinity Rank (1 best to 6 worst) [2] [rank] | Cofactor (IC50 value for iC3b 43-kDa band appearance) [3] [nM] | Binding Potential [4] | Kd [5] [nM] | Substance
1 | 17 | 4 | 31.2 | 4 | 717 | protective CFHT-I62-Y402 (truncated complement factor H ending in SFTL) (from UniProt P08603 19-445)
2 | 107 | – | – | 24 | – | CFH-Del (CFH of the CFHR3/1 deletion haplotype, V62-Y402-E936) (from UniProt P08603 19-1231)
3 | 10 | 5 | – | 2 | – | CFHT-V62-H402 (risk variant of truncated CFH) (from UniProt P08603 19-445)
4 | 134 | – | – | 29 | – | CFH-Neu (neutral variant of full-length CFH, V62-Y402-D936) (from UniProt P08603 19-1231)
5 | 133 | 1 | 9.2 | 29 | 141 | protective CFH-I62-Y402-E936 (full-length complement factor H) (from UniProt P08603 19-1231)
6 | – | 6 | 89.7 | – | 938 | eCFHT-SE (engineered truncated CFH, I62-Y402, ending in SESFTL) (from UniProt P08603 19-445)
7 | – | 3 | 37 | – | 478 | eCFHT-SK (engineered truncated CFH, I62-Y402, ending in SKSFTL) (from UniProt P08603 19-445)
8 | 100 | 2 | – | 22 | – | CFH-V62-H402-E936 (risk variant of full-length CFH) (from UniProt P08603 19-1231)
9 | 15 | – | – | 3 | – | CFHT-Neu/Del (truncated CFH of the neutral and deletion haplotypes, V62-Y402) (from UniProt P08603 19-445)
